In patent US20250346643A1, “TROPOMYOSIN KINASE RECEPTOR (TRK) LIGANDS AS THERAPEUTICS TO SUPPORT LIVER REGENERATION” (Vanderbilt University, priority 2024, published 2025):

B1: HGF: hepatocyte growth factor, complete hepatocyte mitogen used as comparator (protein, UniProt Q08048 33-495; Q08048 496-728, looked up)
Hepatocyte growth factor …: QKKRRNTLHEFKKSAKTTLTKEDPLLKIKTKKVNSADECANRCIRNRGFTFTCKAFVFDKSRKRCYWYPFNSMSSGVKKGFGHEFDLYENKDYIRNCIIGKGGSYKGTVSITKSGIKCQPWNSMIPHEHSFLPSSYRGKDLQENYCRNPRGEEGGPWCFTSNPEVRYEVCDIPQCSEVECMTCNGESYRGPMDHTESGKTCQRWDQQTPHRHKFLPERYPDKGFDDNYCRNPDGKPRPWCYTLDPDTPWEYCAIKTCAHSAVNETDVPMETTECIQGQGEGYRGTSNTIWNGIPCQRWDSQYPHKHDITPENFKCKDLRENYCRNPDGAESPWCFTTDPNIRVGYCSQIPKCDVSSGQDCYRGNGKNYMGNLSKTRSGLTCSMWDKNMEDLHRHIFWEPDASKLNKNYCRNPDDDAHGPWCYTGNPLIPWDYCPISRCEGDTTPTIVNLDHPVISCAKTKQLR
Hepatocyte growth factor beta …: VVNGIPTQTTVGWMVSLKYRNKHICGGSLIKESWVLTARQCFPARNKDLKDYEAWLGIHDVHERGEEKRKQILNISQLVYGPEGSDLVLLKLARPAILDNFVSTIDLPSYGCTIPEKTTCSIYGWGYTGLINADGLLRVAHLYIMGNEKCSQHHQGKVTLNESELCAGAEKIGSGPCEGDYGGPLICEQHKMRMVLGVIVPGRGCAIPNRPGIFVRVAYYAKWIHKVILTYKL
B2: BDNF: brain-derived neurotrophic factor, neurotrophin specific for TrkB (protein)
chain: HSDPARRGELSVCDSISEWVTAADKKTAVDMSGGTVTVLEKVPVSKGQLKQYFYETKCNPMGYTKEGCRGIDKRHWNSQCRTTQSYVRALTMDSKKRIGWRFIRIDTSCVCTLTIKRGR

Legend:
[1] = test system: hepatocytic differentiated human ductal organoids; assay: EdU incorporation in hepatocytic differentiated human ductal organoids (HDO); type: cell-based; conditions: for EdU+ cells compared to vehicle only: 20 ng/ml, 6 hours, William's E without L-glutamine (FIG. 19A-B)
Protocol: Human ductal organoids. The normal human liver tissue was obtained through the Cooperative Human Tissue Network (CHTN) at Vanderbilt University Medical Center. The liver was cut into very small pieces in liver digestion medium (Gibco, Waltham, MA; 17703-034). The cell suspension was filtered through a 100-μm cell strainer. The flow through was then centrifuged for 2 min at 100 g, 4° C., and the cell pellet resuspended in ice-cold DMEM (Gibco, Waltham, MA; 11885-084, supplemented by 5% FBS) and centrifuged for 2 min at 300 g. The cell pellet was gently resuspended in Matrigel® (Corning, Corning, NY; 356231) and a […] dome plated in a 24-well plate. The plate was incubated for 10-15 min at 37° C. After solidifying, complete HepatiCult™ Organoid Initiation Medium (OIM) (STEMCELL Technologies, Vancouver, Canada; 100-0384) was added. For passaging, the Matrigel dome was dissociated using TrypLE (Thermo Fisher Scientific, Waltham, MA; 12604013) and incubated at 37° C. for 5 mins. Organoids were washed by resuspending in advanced DMEM/F12 and consecutive resuspension of the organoid pellet. Organoids were resuspended at a 1:10 dilution in Matrigel® and cultured in complete HepatiCult™ Organoid Growth Medium (OGM) (STEMCELL Technologies, Vancouver, Canada; 100-0385) for organoid expansion. For hepatocytic differentiation of hepatic ductal organoids, culture medium was changed to complete HepatiCult™ Organoid Differentiation Medium (ODM) (STEMCELL Technologies, 100-0383) 4 days after passaging. Vehicle, NTF3, BDNF, HGF (20 ng/ml final concentration) or Taletrectinib (Fisher Scientific, Waltham, MA; 502030245, final concentration 10 nM) or torin2 (Fisher Scientific, Waltham, MA; s2817, final concentration 25 nM) were diluted in William's E (without L-glutamine) and added to organoids.
EdU incorporation and imaging in HDO and mpPHH. A chamber slide was pre-chilled on ice and coated with Matrigel®. Chamber slide was then incubated for 3 min at 37° C. to solidify and organoids plated in 0.02% Matrigel®/complete media into coated chamber slides. Organoids were grown in complete organoid growth media (OGM) for approximately 4 days followed by incubation in organoid differentiation media (ODM) for another 4 days. Organoids were changed to William's E medium 1 day prior to experiment. Vehicle or NTF3, BDNF, HGF (20 ng/ml final concentration each) or Taletrectinib (Fisher Scientific, Waltham, MA; 502030245, final concentration 10 nM) were diluted in William's E (without L-glutamine) and added to organoids. CLICK-iT™ EdU (EdU final concentration […] incubated together with the vehicle, NTF3, BDNF or HGF). After 6 hours, organoids were fixed with 4% paraformaldehyde and permeabilized with 0.5% Triton-X 100. Further processing was performed according to CLICK-ITT EdU manufacturer's instructions. mpPHHs were seeded on collagen coated chamber slides and grown in complete hepatocyte medium (Lonza, Basel, Switzerland). Prior to EdU incorporation assays, mpPHHs were cultured in William's E medium. Vehicle or NTF3, BDNF, HGF (20 ng/ml final concentration each) or Taletrectinib (Fisher Scientific, Waltham, MA; 502030245, final concentration 10 nM) were diluted in William's E (without L-glutamine) and added to mpPHHs. Organoids were imaged in PBS in chamber slides, mpHHs were mounted with fluoromount. Five to fifteen images of random high-power fields were obtained per experiment per treatment and EdU+/Hoechst 33342+ nuclei versus all Hoechst 33342+ nuclei quantified.

[2] = test system: mouse passaged primary human hepatocytes; assay: EdU incorporation in mouse passaged primary human hepatocytes (mpPHH); type: cell-based; conditions: 20 ng/ml each, 4 hours (FIG. 19E-F)
Protocol: Mouse passaged primary human hepatocytes. Mouse-passaged primary human hepatocytes (mpPHHs) were collected as previously described (Michailidis et al., Proc Natl Acad Sci USA. 2020; 117(3): 1678-1688) and cultured in hepatocyte culture media (CC-3198, Lonza, Basel, Switzerland) in collagen-coated chamber slides. Three days before treatment, mpPHH were incubated in William's E media (with L-glutamine). Vehicle, NTF3, BDNF, or HGF (20 ng/ml each) were diluted in William's E (without L-glutamine) and EdU (EdU Cell Proliferation kit, Alexa Flour 555, Thermo Fisher Scientific, Waltham, MA; C10638) was added to each well. mpPHH were incubated for 4 hours and the experiment terminated by fixing the mpPHH in 4% paraformaldehyde/PFA and permeablized with Triton X-100. Click-iT™ EdU staining was then performed according to the manufacturer's instructions. mpPHH were mounted with Flouromount G and imaged with Nikon confocal microscope. 5-15 images per treatment per experiment were randomly taken and EdU positive nuclei quantified.
EdU incorporation and imaging in HDO and mpPHH. A chamber slide was pre-chilled on ice and coated with Matrigel®. Chamber slide was then incubated for 3 min at 37° C. to solidify and organoids plated in 0.02% Matrigel®/complete media into coated chamber slides. Organoids were grown in complete organoid growth media (OGM) for approximately 4 days followed by incubation in organoid differentiation media (ODM) for another 4 days. Organoids were changed to William's E medium 1 day prior to experiment. Vehicle or NTF3, BDNF, HGF (20 ng/ml final concentration each) or Taletrectinib (Fisher Scientific, Waltham, MA; 502030245, final concentration 10 nM) were diluted in William's E (without L-glutamine) and added to organoids. CLICK-iT™ EdU (EdU final concentration […] incubated together with the vehicle, NTF3, BDNF or HGF). […] Five to fifteen images of random high-power fields were obtained per experiment per treatment and EdU+/Hoechst 33342+ nuclei versus all Hoechst 33342+ nuclei quantified.

| Molecule | EdU+ cells compared to vehicle only [1] | EdU+ cells compared to vehicle alone, taletrectinib experiment ([1]; NTF3 20 ng/ml (FIG. 19C-D)) | EdU+ nuclei compared to vehicle only [2] |
| --- | --- | --- | --- |
| NTF3: neurotrophin-3, recombinant protein; HSC-derived hepatocyte mitogen, ligand of TRKA, TRKB, TRKC | significantly increased EdU+ cells | significant increase of EdU+ cells | increased EdU+ nuclei |
| B1 | significantly increased EdU+ cells | – | increased EdU+ nuclei |
| B2 | significantly increased EdU+ cells | – | increased EdU+ nuclei |
